Assay results as given in publication PMC5814352 (Nature, 2018).

Biological target: the molecule itself
Experiment: crystal structure

B1: human DNMT3A (R836A) C-terminal domain (residues 628-912) (domain or fragment, UniProt Q9Y6K1-1 628-912, looked up)
chain: AEKRKPIRVLSLFDGIATGLLVLKDLGIQVDRYIASEVCEDSITVGMVRHQGKIMYVGDVRSVTQKHIQEWGPFDLVIGGSPCNDLSIVNPARKGLYEGTGRLFFEFYRLLHDARPKEGDDRPFFWLFENVVAMGVSDKRDISRFLESNPVMIDAKEVSAAHRARYFWGNLPGMNRPLASTVNDKLELQECLEHGRIAKFSKVRTITTASNSIKQGKDQHFPVFMNEKEDILWCTEMERVFGFPVHYTDVSNMSRLARQRLLGRSWSVPVIRHLFAPLKEYFACV
modifications: covalently bound to Zebularine of the 25-mer DNA
- binding result: binds
